Source: paper PMC4491196

Molecular target: Dnmt3a (ADD domain, ADD3a) ADD domain, 479-610 or 476-611 (UniProt Q9Y6K1)
Assay: biotin-peptide pull-down, Coomassie
Details: reference: unmodified H3 peptide; sites S10

## histone H3 (N-terminal peptides) (from UniProt P68431) H3S10ph peptide
  binding against the reference: same
